Measured values taken from patent US5102995A, “DNA encoding modified heparin cofactor II” (Washington University, priority 1989, dated 1992).
Positions count from the first letter of the chain named.

Legend:
plasma kallikrein = experiment: Inhibition of kallikrein by rHCII (S-2302); assay type: biochemical, human; conditions: for Second-order rate constant (k2) for inhibition of kallikrein: No GAG, kallikrein 10 nM; for Inhibition of kallikrein (in words): absence of a glycosaminoglycan
Procedure: (§1) Materials--Chromogenic substrates were purchased from the following sources: tosyl-Gly-Pro-Arg-p-nitroanilide (Chromozym TH), Boehringer Mannheim; N-succinyl-Ala-Ala-Pro-Phe-p-nitroanilde, Sigma; methoxycarbonyl cyclohexylglycyl-Gly-Arg-p-nitroanilde (Spectrozyme FXa), American Diagnostica; and Pro-Phe-Arg-p-nitroanilide (S-2302), KabiVitrum. Thrombin and HCII derived from human plasma were prepared and assayed by conventional procedures as previously described by Blinder et al., J. Biol. Chem. 264, 5128-5133 (1989). Human coagulation factor Xa was provided by Dr. George Broze, Jr., Washington University, St. Louis, Mo. Human chymotrypsin and plasma kallikrein were purchased from Sigma. Affinity purified rabbit anti-HCII antibodies were prepared and labeled with Na[^125 I] by conventional procedure as described previously by Blinder et al., Biochemistry 27, 752-759 (1988). Bovine lung heparin and porcine skin dermatan sulfate were purchased from Sigma; the dermatan sulfate was treated with nitrous acid to remove contaminating heparin prior to use [Teien et al., Thromb. Res. 8, 859-867 (1976)]. Heparin-Sepharose was prepared by commonly known procedure as described previously by Tollefsen et al., J. Biol. Chem. 257, 2162-2169 (1982).
(§2) Inhibition of proteases by rHCII--Protease inhibition by rHCII was determined by incubating 90 μl of the partially purified rHCII (or the corresponding heparin-Sepharose fractions of a control lysate from cells transformed with pMON-5840) with 5 μl of the protease and 5 μl of either glycosaminoglycan or water in a disposable polystyrene cuvette at room temperature. Final concentrations of the proteases were as follows: thrombin, 15 nM; chymotrypsin, 21 nM; factor Xa, 16 nM; and kallikrein, 10 nM. After a specified period of time from 5 seconds (s) to 150 min, 300-500 μl of the appropriate chromogenic substrate was added, and the absorbance at 405 nm was recorded continuously for 100 s. The rate of change of absorbance was proportional to the concentration of active protease remaining in the incubation. The amounts added and concentrations of each substrate were as follows: Chromozym TH (thrombin), 500 μl, 0.1 mM; N-succinyl-Ala-Ala-Pro-Phe-p-nitroanilde (chymovtrypsin), 300 μl, 0.5 mM; Spectrozyme FXa (factor Xa), 400 μl, 0.125 mM; and S-2302 (kallikrein), 300 μl, 0.4 mM.
(§3) Protease inhibition by rHCII in the absence of a glycosaminoglycan--The time courses of inhibition of thrombin, factor Xa, kallikrein, and chymotrypsin by […] rHCII(Leu444 →Arg) in the absence of a glycosaminoglycan are indicated in FIG. 3. The incubations were performed under pseudo-first-order conditions, such that the initial concentration of rHCII was greater than the concentration of protease. The pseudo-first-order rate constants (k1) for protease inhibition were determined by fitting the data to the following equation: k1 t=ln([P]0 /[P]t), in which [P]0 =initial protease activity and [P]t =protease activity at time=t. The second-order rate constants (k2) were then calculated by dividing k1 by the initial rHCII concentration. It was observed that rHCII(Leu444 →Arg) inhibits thrombin almost 100 times more rapidly than native rHCII in the absence of a glycosaminoglycan. Furthermore, rHCII(Leu444 →Arg) inhibits factor Xa and kallikrein, while inhibition of these proteases by native rHCII is undetectable.

thrombin [1] = experiment: Inhibition of thrombin by rHCII (chromogenic substrate Chromozym TH); assay type: biochemical, human; conditions: for Second-order rate constant (k2) for inhibition of thrombin: No GAG, thrombin 15 nM, room temperature; for Increase in the rate constant for thrombin inhibition produced by dermatan sulfate: dermatan sulfate vs no GAG; for Increase in the rate constant for thrombin inhibition produced by heparin: heparin vs no GAG; for Maximum rate constant of thrombin inhibition relative to native HCII: in the presence of dermatan sulfate
Procedure: as §1, §2, §3
Inhibition of thrombin by rHCII in the presence of dermatan sulfate or heparin--The time course of inhibition of thrombin was determined in the presence of various concentrations of dermatan sulfate or heparin.

chymotrypsin = experiment: Inhibition of chymotrypsin by rHCII (chromogenic substrate); assay type: biochemical, human; conditions: for Second-order rate constant (k2) for inhibition of chymotrypsin: No GAG, chymotrypsin 21 nM; for Inhibition of chymotrypsin (in words): absence of a glycosaminoglycan
Procedure: as §1, §2, §3

factor Xa = experiment: Inhibition of factor Xa by rHCII (Spectrozyme FXa); assay type: biochemical, human; conditions: for Second-order rate constant (k2) for inhibition of factor Xa: No GAG, factor Xa 16 nM; for Inhibition of factor Xa (in words): absence of a glycosaminoglycan
Procedure: as §1, §2, §3

thrombin [2] = conditions: literature; cited from earlier work

B1: rHCII(Leu444 →Arg): modified heparin cofactor II: leucine at position 444 replaced by arginine in the 480 amino acid sequence; expressed in E. coli (protein, UniProt P05546 20-499, looked up, variant L444R)
Heparin cofactor 2: GSKGPLDQLEKGGETAQSADPQWEQLNNKNLSMPLLPADFHKENTVTNDWIPEGEEDDDYLDLEKIFSEDDDYIDIVDSLSVSPTDSDVSAGNILQLFHGKSRIQRLNILNAKFAFNLYRVLKDQVNTFDNIFIAPVGISTAMGMISLGLKGETHEQVHSILHFKDFVNASSKYEITTIHNLFRKLTHRLFRRNFGYTLRSVNDLYIQKQFPILLDFKTKVREYYFAEAQIADFSDPAFISKTNNHIMKLTKGLIKDALENIDPATQMMILNCIYFKGSWVNKFPVEMTHNHNFRLNEREVVKVSMMQTKGNFLAANDQELDCDILQLEYVGGISMLIVVPHKMSGMKTLEAQLTPRVVERWQKSMTNRTREVLLPKFKLEKNYNLVESLKLMGIRMLFDKNGNMAGISDQRIAIDLFKHQGTITVNEEGTQATTVTTVGFMPRSTQVRFTVDRPFLFLIYEHRTSCLLFMGRVANPSRS
modifications: expressed in E. coli
Plasma kallikrein
  Second-order rate constant (k2) for inhibition of kallikrein: 130000 M⁻¹ min⁻¹
  Inhibition of kallikrein (in words): inhibits
Plasma kallikrein; listed as HCII(Leu444 →Arg)
  Inhibition of kallikrein (in words): inhibited more rapidly
Plasma kallikrein; heparin 100 μg/ml
  Effect of heparin on inhibition of kallikrein: appears to protect
Thrombin [1]
  Second-order rate constant (k2) for inhibition of thrombin: 6.2e+06 M⁻¹ min⁻¹
  Increase in the rate constant for thrombin inhibition produced by dermatan sulfate: much smaller effect
  Increase in the rate constant for thrombin inhibition produced by heparin: minimal effect
  Maximum rate constant of thrombin inhibition relative to native HCII: about twice as fast
Thrombin [1]; listed as HCII(Leu444 →Arg)
  Second-order rate constant (k2) for inhibition of thrombin: 6.2e+06 M⁻¹ min⁻¹
  Maximum rate constant of thrombin inhibition relative to native HCII: 2 fold
Thrombin [1]; absence of a glycosaminoglycan
  Rate of thrombin inhibition relative to native HCII: ~100 fold
chymotrypsin
  Second-order rate constant (k2) for inhibition of chymotrypsin: < 10000 M⁻¹ min⁻¹
  Inhibition of chymotrypsin (in words): does not inhibit chymotrypsin at a detectable rate
chymotrypsin; listed as HCII(Leu444 →Arg)
  Inhibition of chymotrypsin (in words): more slowly
Factor Xa
  Second-order rate constant (k2) for inhibition of factor Xa: 44000 M⁻¹ min⁻¹
  Inhibition of factor Xa (in words): inhibits
Factor Xa; listed as HCII(Leu444 →Arg)
  Inhibition of factor Xa (in words): inhibited more rapidly
Factor Xa; dermatan sulfate
  Effect of dermatan sulfate on rate of inhibition of factor Xa: nor does it increase
Factor Xa; heparin 100 μg/ml
  Effect of heparin on inhibition of factor Xa: appears to protect

B2: HCII: heparin cofactor II, a 65,600 dalton plasma glycoprotein, serpin that inhibits thrombin (protein, UniProt P05546 20-499, looked up)
Heparin cofactor 2: B1 Heparin cofactor 2 with R444L
Thrombin [2]
  Increase of the rate of thrombin inhibition by heparin and dermatan sulfate: ~ 1000 fold

B3: native rHCII: recombinant native heparin cofactor II expressed in E. coli; amino acid sequence identical to HCII purified from human plasma (protein, UniProt P05546 20-499, looked up)
Heparin cofactor 2: B1 Heparin cofactor 2 with R444L
Plasma kallikrein
  Second-order rate constant (k2) for inhibition of kallikrein: < 3000 M⁻¹ min⁻¹
  Inhibition of kallikrein (in words): undetectable
Thrombin [1]
  Second-order rate constant (k2) for inhibition of thrombin: 63000 M⁻¹ min⁻¹
  Increase in the rate constant for thrombin inhibition produced by dermatan sulfate: ~3500 fold
  Increase in the rate constant for thrombin inhibition produced by heparin: about 40 fold
Thrombin [1]; listed as native HCII
  Second-order rate constant (k2) for inhibition of thrombin: 63000 M⁻¹ min⁻¹
chymotrypsin
  Second-order rate constant (k2) for inhibition of chymotrypsin: 220000 M⁻¹ min⁻¹
chymotrypsin; dermatan sulfate
  Effect of dermatan sulfate on rate of inhibition of chymotrypsin: does not significantly increase
Factor Xa
  Second-order rate constant (k2) for inhibition of factor Xa: < 1000 M⁻¹ min⁻¹
  Inhibition of factor Xa (in words): undetectable
